17 molecules from US20090175786A1 (published 2009) can be followed below.

The IC50 is the concentration that inhibits the measured activity by half. Low readings indicate higher potency, high ones lower potency.

Like-named read-outs stand apart in the source and are kept apart here. Where no end group is shown, it is not given here. [ ]: non-standard residue; d: D form. The star is where a group is joined. DOTA = O=C(O)CN1CCN(CC(=O)O)CCN(CC(=O)*)CCN(CC(=O)O)CC1; 4Abz = Nc1ccc(C(=O)O)cc1; Dap = NC[C@H](N)C(=O)O; AEEA = NCCOCCOCC(=O)O; Me2Gly = CN(C)CC(=O)*; Acm = CC(=O)NC*

The target in test [1] is T1, neuromedin-B preferring receptor (NMB-R) of C6 rodent glioblastoma cells (rodent, UniProt P24053 1-390, limits assumed).
T1 construct: whole, on cells; also called C6/NMB-R
T1 sequence (looked up): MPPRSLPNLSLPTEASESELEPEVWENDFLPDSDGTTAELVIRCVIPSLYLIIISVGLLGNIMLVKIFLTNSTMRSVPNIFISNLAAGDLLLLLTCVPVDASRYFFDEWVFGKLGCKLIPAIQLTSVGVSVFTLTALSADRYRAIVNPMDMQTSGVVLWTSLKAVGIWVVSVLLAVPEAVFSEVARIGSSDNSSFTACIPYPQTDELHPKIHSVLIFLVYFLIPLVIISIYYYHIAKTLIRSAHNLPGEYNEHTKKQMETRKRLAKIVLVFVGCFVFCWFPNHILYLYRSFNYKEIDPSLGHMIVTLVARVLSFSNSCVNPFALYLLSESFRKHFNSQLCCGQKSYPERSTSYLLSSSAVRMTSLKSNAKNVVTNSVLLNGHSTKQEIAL
Kind of test: 125I-NMB competition, C6 cells.
Description: The binding parameters obtained from the studies were analyzed using a one-site competition non-linear regression analysis with GraphPad Prism.

Test [2] addresses T1, neuromedin-B preferring receptor …. Kind of test: 125I-NMB competition, C6 cells. This is another data set of the same source.
For test [3], the target named is T2, gastrin releasing peptide receptor (GRP-R), human (human, UniProt P30550 1-384).
T2 construct: whole, on cells; also called GRP receptor; GRP-preferring receptor
T2 sequence (P30550 whole entry): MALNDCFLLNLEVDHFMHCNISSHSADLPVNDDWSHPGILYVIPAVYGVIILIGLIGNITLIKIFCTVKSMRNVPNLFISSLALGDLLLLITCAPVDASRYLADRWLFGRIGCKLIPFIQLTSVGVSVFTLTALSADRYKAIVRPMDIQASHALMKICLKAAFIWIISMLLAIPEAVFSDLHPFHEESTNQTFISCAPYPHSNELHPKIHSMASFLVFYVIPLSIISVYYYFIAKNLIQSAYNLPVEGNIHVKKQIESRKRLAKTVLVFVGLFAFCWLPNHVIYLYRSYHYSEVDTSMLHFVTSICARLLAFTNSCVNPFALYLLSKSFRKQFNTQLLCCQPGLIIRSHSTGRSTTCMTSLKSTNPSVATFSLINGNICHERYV
Kind of test: 125I-BBN competition, PC3 cells.

In test [4] the target is T3, bombesin receptor subtype 3 (BB3-R), human (human, UniProt P32247 1-399).
T3 construct: whole, on cells; tissue sections, receptor autoradiography
T3 sequence (looked up): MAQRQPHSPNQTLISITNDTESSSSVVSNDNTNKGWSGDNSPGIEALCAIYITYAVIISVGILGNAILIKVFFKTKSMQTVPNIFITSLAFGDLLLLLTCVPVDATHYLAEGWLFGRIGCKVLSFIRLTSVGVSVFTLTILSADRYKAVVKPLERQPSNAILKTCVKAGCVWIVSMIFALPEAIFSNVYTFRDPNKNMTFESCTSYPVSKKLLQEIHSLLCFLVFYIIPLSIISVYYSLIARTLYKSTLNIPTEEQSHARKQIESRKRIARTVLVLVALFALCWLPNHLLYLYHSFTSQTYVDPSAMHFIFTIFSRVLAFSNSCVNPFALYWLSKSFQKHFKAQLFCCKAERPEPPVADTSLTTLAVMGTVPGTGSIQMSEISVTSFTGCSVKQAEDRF
Kind of test: receptor autoradiography on human tumour sections.
Excerpt: Human ileal carcinoid tissue was used as a source for NMB-R, human prostate carcinoma for GRP-R and human bronchial carcinoid for BB3-R subtype receptors.

The target in test [5] is T2, gastrin releasing peptide receptor …. Kind of test: 125I-BBN competition, PC3 cells. The source holds these as a separate data set.
For test [6] the target is unchanged. Kind of test: 125I-BBN competition, PC3 cells. This is another data set of the same source.
Description: (§1) All compounds tested were dissolved in binding buffer and appropriate dilutions were also done in binding buffer. PC3 cells for assay were seeded at a concentration of 2.0×10⁴/well either in 96-well black/clear collagen I cellware plates (Beckton Dickinson Biocoat). Plates were used for binding studies on day 2 post-plating. The plates were checked for confluency (>90% confluent) prior to assay. […] The studies were conducted with an assay volume of 75 μL per well. Triplicate wells were used for each data point. After the addition of the appropriate solutions, plates were incubated for 1 hour at 4° C. Incubation was ended by the addition of 200 μL of ice-cold incubation buffer. Plates were washed 5 times and blotted dry. Radioactivity was detected using either a LKB CompuGamma counter or a microplate scintillation counter.
Test [7] shares this target. Kind of test: 125I-BBN competition, PC3 cells. This is another data set of the same source.
Description: as §1
Test [8] shares this target. Kind of test: displacement of 125I-universal ligand, human tumour sections. Background: Loss of bound radioactivity is the signal in a displacement assay; it reports binding, not function.

B1: WAVGHLM-NH2 (peptide)
peptide: WAVGHLM-NH2
notes: also called BBN8-14
B1: the IC50 in test [1] and in test [2] was above 800 nM in each case.

B2: N,N-dimethylglycine-Ser-Cys(Acm)-Gly-2,3-diaminopropionic acid-8-amino-3,6-dioxaoctanoic acid-Gly-BBN(7-14) (peptide)
peptide: {Me2Gly-Ser-Cys(Acm)}-G[Dap][AEEA]GQWAVGHLM-NH2
notes: same M-N-O-P-G as printed for L61, other MS; also called L26
In test [3], B2 gave an IC50 of 30 nM.

B3: DO3A-monoamide-G-Abz4-LWATGHFM-NH2 (peptide)
peptide: {DOTA}-G[4Abz]LWATGHFM-NH2
notes: also called L227
For B3, the IC50 is 0.8 nM in test [1] and 0.07 nM in test [2].

B4: N,N-dimethylglycine-Ser-Cys(Acm)-Gly-8-amino-3,6-dioxaoctanoic acid-Arg-Gly-BBN(7-14) (peptide)
peptide: RGQWAVGHLM
modifications: N-terminus: N,N-dimethylglycine-Ser-Cys(Acm)-Gly-8-amino-3,6-dioxaoctanoic acid; C-terminal amide
notes: same M-N-O-P-G as printed for L22, other MS; also called L57
For B4, the IC50 in test [3] is 50 nM.

B5: ^177Lu-L70 (peptide)
peptide: QWAVGHLM
modifications: N-terminus: 177Lu complex of DO3A-monoamide-Gly-4-aminobenzoic acid; C-terminal amide
notes: also called Lutetium complex of L70
Take B5: the binding result in test [4] is given as “no binding”.

B6: N,N-dimethylglycine-Ser-Cys(Acm)-Gly-SS-QWAVGHLM-NH2 (peptide)
peptide: [Me2Gly]SC(Acm)GSSQWAVGHLM-NH2
SMILES: CSCC[C@H](NC(=O)[C@H](CC(C)C)NC(=O)[C@H](Cc1c[nH]cn1)NC(=O)CNC(=O)[C@@H](NC(=O)[C@H](C)NC(=O)[C@H](Cc1c[nH]c2ccccc12)NC(=O)[C@H](CCC(N)=O)NC(=O)[C@H](CO)NC(=O)[C@H](CO)NC(=O)CNC(=O)[C@H](CSCNC(C)=O)NC(=O)[C@H](CO)NC(=O)CN(C)C)C(C)C)C(N)=O
With B6, the IC50 in test [5] was 10 nM. This lies in the double-digit nanomolar range.

B7: N,N-dimethylglycine-Ser-Cys(Acm)-Gly-SK-QWAVGHLM-NH2 (peptide)
peptide: [Me2Gly]SC(Acm)GSKQWAVGHLM-NH2
Molecule B7 came in with an IC50 in test [5] of 2 nM.

B8: N,N-dimethylglycine-Ser-Cys(Acm)-Gly-SR-QWAVGHLM-NH2 (peptide)
peptide: [Me2Gly]SC(Acm)GSRQWAVGHLM-NH2
SMILES: CSCC[C@H](NC(=O)[C@H](CC(C)C)NC(=O)[C@H](Cc1c[nH]cn1)NC(=O)CNC(=O)[C@@H](NC(=O)[C@H](C)NC(=O)[C@H](Cc1c[nH]c2ccccc12)NC(=O)[C@H](CCC(N)=O)NC(=O)[C@H](CCCNC(=N)N)NC(=O)[C@H](CO)NC(=O)CNC(=O)[C@H](CSCNC(C)=O)NC(=O)[C@H](CO)NC(=O)CN(C)C)C(C)C)C(N)=O
B8: the IC50 in test [1] is 2 nM. That is a single-digit nanomolar value.

B9: N,N-dimethylglycine-Ser-Cys(Acm)-Gly-KE-QWAVGHLM-NH2 (peptide)
peptide: [Me2Gly]SC(Acm)GKEQWAVGHLM-NH2
SMILES: CSCC[C@H](NC(=O)[C@H](CC(C)C)NC(=O)[C@H](Cc1c[nH]cn1)NC(=O)CNC(=O)[C@@H](NC(=O)[C@H](C)NC(=O)[C@H](Cc1c[nH]c2ccccc12)NC(=O)[C@H](CCC(N)=O)NC(=O)[C@H](CCC(=O)O)NC(=O)[C@H](CCCCN)NC(=O)CNC(=O)[C@H](CSCNC(C)=O)NC(=O)[C@H](CO)NC(=O)CN(C)C)C(C)C)C(N)=O
For the molecule B9, the IC50 in test [1] amounted to 60 nM. Compared with the last molecule, the IC50 is about 30-fold higher.

B10: DO3A-monoamide-G-Abz4-QWAGHFL-NH2 (peptide)
peptide: {DOTA}-G[4Abz]QWAGHFL-NH2
SMILES: CC(C)C[C@H](NC(=O)[C@H](Cc1ccccc1)NC(=O)[C@H](Cc1c[nH]cn1)NC(=O)CNC(=O)[C@H](C)NC(=O)[C@H](Cc1c[nH]c2ccccc12)NC(=O)[C@H](CCC(N)=O)NC(=O)c1ccc(NC(=O)CNC(=O)CN2CCN(CC(=O)O)CCN(CC(=O)O)CCN(CC(=O)O)CC2)cc1)C(N)=O
notes: also called L224
For B10, the IC50 in test [6] and in test [7] was above 500 nM each time.

B11: ^175Lu-L70 (peptide)
peptide: QWAVGHLM
modifications: N-terminus: 175Lu complex of DO3A-monoamide-Gly-4-aminobenzoic acid; C-terminal amide
As to B11, the IC50 in test [8] is 0.8 nM. This lies in the sub-nanomolar range.

B12: N,N-dimethylglycine-Ser-Cys(Acm)-Gly-8-amino-3,6-dioxaoctanoic acid-Arg-BBN(7-14) (peptide)
peptide: RQWAVGHLM
modifications: N-terminus: N,N-dimethylglycine-Ser-Cys(Acm)-Gly-8-amino-3,6-dioxaoctanoic acid; C-terminal amide
notes: also called L9
Molecule B12 returned an IC50 in test [3] of 6 nM.

B13: N,N-dimethylglycine-Ser-Cys(Acm)-Gly-8-amino-3,6-dioxaoctanoic acid-Glu-BBN(7-14) (peptide)
peptide: EQWAVGHLM
modifications: N-terminus: N,N-dimethylglycine-Ser-Cys(Acm)-Gly-8-amino-3,6-dioxaoctanoic acid; C-terminal amide
notes: also called L13
On to B13, for which the IC50 in test [3] is above 50 nM.

B14: N,N-dimethylglycine-Ser-Cys(Acm)-Gly-N-4-aminoethyl-N-1-piperazineacetic acid-Asp-BBN(7-14) (peptide)
peptide: DQWAVGHLM
modifications: N-terminus: N,N-dimethylglycine-Ser-Cys(Acm)-Gly-N-4-aminoethyl-N-1-piperazineacetic acid; C-terminal amide
notes: also called L27
In test [3], B14 gave an IC50 above 50 nM.

B15: N,N-dimethylglycine-Ser-Cys(Acm)-Gly-8-amino-3,6-dioxaoctanoic acid-Asp-BBN(7-14) (peptide)
peptide: DQWAVGHLM
modifications: N-terminus: N,N-dimethylglycine-Ser-Cys(Acm)-Gly-8-amino-3,6-dioxaoctanoic acid; C-terminal amide
notes: also called L10
B15: the IC50 in test [3] was above 50 nM.

B16: N,N-dimethylglycine-Ser-Cys(Acm)-Gly-8-amino-3,6-dioxaoctanoic acid-Lys-BBN(7-14) (peptide)
peptide: KQWAVGHLM
modifications: N-terminus: N,N-dimethylglycine-Ser-Cys(Acm)-Gly-8-amino-3,6-dioxaoctanoic acid; C-terminal amide
notes: also called L8
B16 had an IC50 in test [3] of 4 nM.

B17: N,N-dimethylglycine-Ser-Cys(Acm)-Gly-N-1-piperazineacetic acid-Asp-BBN(7-14) (peptide)
peptide: DQWAVGHLM
modifications: N-terminus: N,N-dimethylglycine-Ser-Cys(Acm)-Gly-N-1-piperazineacetic acid; C-terminal amide
notes: also called L33
With B17, the IC50 in test [3] is above 50 nM.
